According to publication PMC9911596 (Nature Communications, 2023):

T1: Vtc1/Vtc3/Vtc4 complex (VTC complex) (Saccharomyces cerevisiae, UniProt P47075+Q02725)
T1 construct: full-length subunits co-expressed in Expi293F; Vtc1 C-terminal HA, Vtc3 N-terminal 3xFlag, Vtc4 C-terminal 2xStrep; detergent-purified; 3:1:1 pentamer; with Vacuolar transporter chaperone complex subunit 1
T1 sequence (P47075 1-721): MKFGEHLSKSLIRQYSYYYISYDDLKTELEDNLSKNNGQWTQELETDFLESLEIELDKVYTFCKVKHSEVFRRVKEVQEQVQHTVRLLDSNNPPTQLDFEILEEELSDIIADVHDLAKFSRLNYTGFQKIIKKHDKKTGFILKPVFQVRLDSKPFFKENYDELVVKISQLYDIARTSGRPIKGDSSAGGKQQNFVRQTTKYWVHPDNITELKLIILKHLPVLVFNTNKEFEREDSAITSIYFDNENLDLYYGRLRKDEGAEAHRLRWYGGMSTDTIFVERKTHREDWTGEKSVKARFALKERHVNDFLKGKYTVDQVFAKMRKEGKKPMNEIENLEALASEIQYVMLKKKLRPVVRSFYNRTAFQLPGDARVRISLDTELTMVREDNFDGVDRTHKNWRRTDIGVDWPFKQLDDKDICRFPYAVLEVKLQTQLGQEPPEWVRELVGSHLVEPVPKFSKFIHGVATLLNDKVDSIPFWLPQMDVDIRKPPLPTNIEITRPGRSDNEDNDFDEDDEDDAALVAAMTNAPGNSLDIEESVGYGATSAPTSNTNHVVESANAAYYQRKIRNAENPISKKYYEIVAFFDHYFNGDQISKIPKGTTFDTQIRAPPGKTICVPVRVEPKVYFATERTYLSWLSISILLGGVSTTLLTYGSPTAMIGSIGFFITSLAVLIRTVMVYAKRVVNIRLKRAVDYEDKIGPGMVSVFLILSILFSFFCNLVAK
T1 sequence (Q02725 1-835): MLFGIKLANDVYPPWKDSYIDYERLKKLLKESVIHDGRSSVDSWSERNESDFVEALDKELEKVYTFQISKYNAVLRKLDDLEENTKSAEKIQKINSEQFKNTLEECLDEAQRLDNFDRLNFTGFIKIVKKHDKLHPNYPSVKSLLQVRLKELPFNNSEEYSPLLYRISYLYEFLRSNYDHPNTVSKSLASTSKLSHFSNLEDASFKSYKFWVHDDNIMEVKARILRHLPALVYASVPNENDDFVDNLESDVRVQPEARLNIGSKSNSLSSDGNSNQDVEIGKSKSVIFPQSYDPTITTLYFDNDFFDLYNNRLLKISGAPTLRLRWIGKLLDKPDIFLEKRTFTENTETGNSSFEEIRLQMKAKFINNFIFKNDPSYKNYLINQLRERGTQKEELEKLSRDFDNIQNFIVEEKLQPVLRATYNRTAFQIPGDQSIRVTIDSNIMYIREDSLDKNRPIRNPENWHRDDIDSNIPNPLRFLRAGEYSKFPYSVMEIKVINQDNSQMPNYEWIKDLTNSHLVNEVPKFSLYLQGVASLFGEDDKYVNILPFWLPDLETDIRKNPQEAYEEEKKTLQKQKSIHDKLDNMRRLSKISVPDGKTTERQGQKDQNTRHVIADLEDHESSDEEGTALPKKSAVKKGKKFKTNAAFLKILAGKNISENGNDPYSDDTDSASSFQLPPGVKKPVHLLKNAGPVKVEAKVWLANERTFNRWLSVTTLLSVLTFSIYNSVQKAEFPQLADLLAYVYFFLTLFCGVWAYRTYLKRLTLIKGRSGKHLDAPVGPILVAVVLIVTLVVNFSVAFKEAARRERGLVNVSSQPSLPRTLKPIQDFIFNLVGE
T1 sequence (P40046 2-129 partner): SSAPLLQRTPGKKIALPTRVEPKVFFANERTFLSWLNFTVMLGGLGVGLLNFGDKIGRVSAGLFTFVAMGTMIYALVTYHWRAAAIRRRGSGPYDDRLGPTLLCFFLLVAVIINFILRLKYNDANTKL

T2: Vtc3 (Baker's yeast, UniProt Q02725 1-835)
T2 construct: Vtc3, yeast, UniProt Q02725; codon-optimized DNA in the pMlink vector; source: Expi293F cells, transiently cotransfected with the Vtc1 and Vtc4 plasmids; purified as part of the VTC complex (anti-Flag resin, Strep-Tactin resin; SEC for the cryo-EM sample); not shown: 3×Flag, N-terminal, kept
T2 sequence: T1 sequence (Q02725 1-835)

B1: Vtc4_(R264A/R266A/E426N) (natural protein, Baker's yeast)
chain: KFGEHLSKSLIRQYSYYYISYDDLKTELEDNLSKNNGQWTQELETDFLESLEIELDKVYTFCKVKHSEVFRRVKEVQEQVQHTVRLLDSNNPPTQLDFEILEEELSDIIADVHDLAKFSRLNYTGFQKIIKKHDKKTGFILKPVFQVRLDSKPFFKENYDELVVKISQLYDIARTSGRPIKGDSSAGGKQQNFVRQTTKYWVHPDNITELKLIILKHLPVLVFNTNKEFEREDSAITSIYFDNENLDLYYGRLRKDEGAEAHALAWYGGMSTDTIFVERKTHREDWTGEKSVKARFALKERHVNDFLKGKYTVDQVFAKMRKEGKKPMNEIENLEALASEIQYVMLKKKLRPVVRSFYNRTAFQLPGDARVRISLDTELTMVREDNFDGVDRTHKNWRRTDIGVDWPFKQLDDKDICRFPYAVLNVKLQTQLGQEPPEWVRELVGSHLVEPVPKFSKFIHGVATLLNDKVDSIPFWLPQMDVDIRKPPLPTNIEITRPGRSDNEDNDFDEDDEDDAALVAAMTNAPGNSLDIEESVGYGATSAPTSNTNHVVESANAAYYQRKIRNAENPISKKYYEIVAFFDHYFNGDQISKIPKGTTFDTQIRAPPGKTICVPVRVEPKVYFATERTYLSWLSISILLGGVSTTLLTYGSPTAMIGSIGFFITSLAVLIRTVMVYAKRVVNIRLKRAVDYEDKIGPGMVSVFLILSILFSFFCNLVAK
notes: Vtc4, yeast, UniProt P47075; codon-optimized DNA in the pMlink vector; three substitutions in the TTM domain; also called catalytically impaired Vtc4; source: Expi293F cells, transiently cotransfected with the Vtc1 and Vtc3 plasmids; purified as part of the VTC complex with 1 mM InsP6 (anti-Flag resin, Strep-Tactin resin, SEC); not shown: 2×Strep, C-terminal, kept
B2: Vtc1 (natural protein, Baker's yeast)
chain: T1 sequence (P40046 2-129 partner)
notes: Vtc1, yeast, UniProt P40046; codon-optimized DNA in the pMlink vector; Three copies of Vtc1 stand in the Vtc1/Vtc3/Vtc4 complex (3:1:1); also called Vtc1A; Vtc1B; source: Expi293F cells, transiently cotransfected with the Vtc3 and Vtc4 plasmids; purified as part of the VTC complex (anti-Flag resin, Strep-Tactin resin; SEC for the cryo-EM sample)

Assays:
[1] = biological target: T1, Vtc1/Vtc3/Vtc4 complex (VTC complex); assay: polyP synthesis, TBE-PAGE and DAPI; assay type: biochemical; conditions: 15 mM ATP, 10 mM MgCl2, 1 mM MnCl2, 0.5 mM pyrophosphate, InsP6, 27 °C, 4 h
Vtc3 = biological target: T2, Vtc3; assay: cryo-EM structure; Vtc1/Vtc3/Vtc4_(R264A/R266A/E426N) complex co-expressed in Expi293F and purified with 1 mM InsP6, 0.02% GDN, 25 mM Tris-HCl pH 8.0, 150 mM NaCl; 3.0 Å; conditions: both partners purified
Vtc4_(R264A/R266A/E426N) = biological target: B1; assay: as above; conditions: both partners purified
[2] = biological target: the molecule itself; assay: as above

Molecule | polyP synthesis, TBE-PAGE and DAPI [1] | stoichiometry N (Vtc3) | stoichiometry N (Vtc4_(R264A/R266A/E426N)) | stoichiometry N [2]
Nc1ncnc2c1ncn2[C@@H]1O[C@H](COP(=O)(O)OP(=O)(O)OP(=O)(O)O)[C@@H](O)[C@H]1O [ATP] | we incubated VTC complex with ATP and InsP6 |  |  | 
B1 |  | 1 |  | 
B2 |  | 3 | 3 | 3
